Experiment: yeast display, Sf9 membrane polyspecificity reagent, FACS + sequencing; frameworks hold sequencing errors
Method in brief: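 In a synthetic yeast display library (Saccharomyces cerevisiae BJ5465), nanobody expression was induced with galactose for 36–48 hours. FACS gates were set low and high (top ~1%) using anti-HA fluorescence for expression and streptavidin fluorescence for binding of the Sf9 membrane reagent. Each polyreactivity label is drawn from the gate of origin.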

Sequence	polyreactivity (PSR sort gate)
QVQLVESGGGLVQAGGSLRLSCAASGSTFTQYAMGWYRQEPGKERELVAAITGSGGRTYYADSVKGRFTISRDNAKNTVYLQMNSLKPEDTAVYYCAARDKFGGYYHWGQGTQVTVSS	high polyreactivity
QVQLVESGGGLVQAGGSHRLSCAASGITFTGYGMGWYRQAPGKERELVAAIRLRTGSTYFADSVKGRFTISRDNAKNTVYLQMNSLKPEDTAVYYCNKVTVYRFRGVSWGQGTQVTVSS	high polyreactivity
QVQLVESGGGLVQAGGSLRLSCAASGRTFRIYAMGWYRQAPGKERELVATISGRGGNTYYADSVKGRFTISRDNAKNTVYLQMNSLKPEDTAVDYCAADDATAYRVDGFKYDYWGQGTLVTVSS	high polyreactivity
QVQLVESVGGLDQAGGSLRLSCAASGRIIAWYPMGWYRQSPGKERELVAAISWNGGRTYYADSVKGRFTISRDNAKNTVYLQINSLKPEDTAVYYCAAGKTPQKYGGFNSWGQGTQVTVSS	high polyreactivity
QVQLVESGGGLVQAGGSLRLSCAASGRIFDQNAMGWYRQAPGKERELVAAISSSGGRTYYADSVKGRFTISRDNAKNTVYLQMNSLKPEDTAVYYCAARYRFQRGGYYYWGQGTQVTVSS	high polyreactivity
QVQLVESGGGLVQAGGSLRLSCAASGSTFGYYAMGWYRQAPGKERELVASITSDGSTNYADSVKGRFTISRDNAKNTVYLQMNSLKPEDSSVYYCAAYVWRYWHEYDYWGQGTQVTVSS	low polyreactivity
QVQLVESGGGLDQAGGSLRLSCAASGRNFTRYAMGWYRQAPGKERELVAVITRSGGSTYYADSVKGRFTISRDNAKNTVYLQMNSVKPEDTAVYYCDAKYYGEMYYWGQRTQVTVSS	low polyreactivity
QVQLVESGGGLLQAGGSLRFSWAASGFIFIINPMGWYRQAPGKERELVAGIRWSGGYKYYADSVKGRFTISRDNEKNTVYLQINSLKPEDTAVYYCNKDRGSLTLYTYDYWGQVTQVTVSS	low polyreactivity
QVQLVESGGGLVQAGGSLRLSCASSGFTFRSYAMGWYRQAPGKERELVAAIRWSGDSTYYADSVKGRFTISRDNAKNTVYLQMTSLKPEDTAVYYCAAGTYLRYGYWGQGTQVTVSS	high polyreactivity
QVQLVESGGGLLQAGGSLRLSCAASGRIFPYYAMGWYRQAPGKERVLLAAISQSGGRTYYADSVKGRFTISRDNAKNTVFLQMNSLKPEDTAVYYCNADTYSSGYDYWGQGTQVTVSS	high polyreactivity
QVQLVESGGGLVQAGGSLRLSCAASGRTFAFNAMGWYRQAPGKERELVATISWSGGSTYYADSVKGRFTISRDNAKNTVYLQMNSLKPEDTAVYYCGAEYVVYRYRLYGTVAYDYWGQGTQVTVSS	high polyreactivity
QVQLVESGGGLVQAGGSLRLICAASGYIFYKNAMGWYRQAPGKERELVASITGTGGSTYYADSVKGRFTISRDNAKNTVYLQMNSLKPEDTAVYYCAADYTPWDPVSHWGQGTQVTVSS	low polyreactivity
QVQLVESGGGLVQAGGSLRLSCAASGSIYRWYAMGWYRQAPGKERELVASISSGTRTNYADSVKGRFTISRDNAKNTVYLQMNSLKPEDTAVYYCAAPYVKRWWGYGYWGQGTQVTVSS	high polyreactivity
QVQLVESGGGLVQAGGSLRLSCAASGRISGWYAMGWYRQAPGKERELVASISSSGGSTYYADSVEGRFTISRDNAKNTVYFQMNSLKPEDTAVYYCAVRRYNWSFYRGYDYWGQGTQVTVSS	high polyreactivity
QVQLVESGGGLVQAGGSLRLSCAASGSTFSVYAMGWYRQAPGKERELVAAISSSGANTYYADSVKGRFTISRDNAKNTVYLQMNSLKPEDTAVYYCAAYVSGGYEYDYWGQGTQVTVSS	low polyreactivity
QVQLVESGGGLVQAGGSLRLSCAASGGTFWKYPMGWTRQAPGKERELVAAITWSGSSTYYADSVKGRFTISRDNAKNTVYLQMNSLKPEDTAVFYCAARYQPRKGAHYGYWGQGTQVTVSS	high polyreactivity

Sequence	polyreactivity (PSR sort gate)
QVKLVESGGGLVQAGGSLRLSCAASGRTFRYNAMGWYRQEPGEERELVASITSGGSTNYADSVKGRFTISRDNAKNTVYLQMNRLKPEDTAVYYCAADERRPYWQHCIGSGRPFDYWGQGTQVTVSS	low polyreactivity
QLQLVESGGGLVQAGGRLRLSCAASGLNFYDNMGWYRQPPGKEREFVAAISSSGGSTSYADSVKGRFTISRDNAKNTVYLQMNSLKPEDRAVYYCAADSYPAYLGFVGFDYWGQGTQVTVSS	low polyreactivity
QVQLVESGGGLVQAGGSLRLSCAASGNTFFTYAMGWYRQAPGQERELVAVITSVGSTNYADSVKGLFTISRDNAKNTVYLQMNSLKPEDTAVYYCAAKGYRVYRYYRGRTYDYWGQGSQVTVSS	high polyreactivity
QVQLVESGGGLVQAGGSLRLSCAASGLTLYKNGMGWYRQAPGKERELVAVISRSGGRTYYAESVKGRFTISRDNAKNTVYLQMNSLKPEDTSVYYCAKRYGYTEYYYWGQGTQVTVSS	high polyreactivity
QVQLVESGGVLVQEGGSLRLSCAASGRIFQIYAMGWYRQAPGKERELFAAISGSTSYADSVKGRFTISRDNAKNTVYLQMNSLKPEDTAVYYCAKRVVRGKVDYWGQGTQVTVSS	low polyreactivity
QVQLVESGGGLVQAGGSLRLSCAASGSIFIWNALGCYRQAPGKERELVAAIRSSGGTTYYADSVKGRFTISRDNAKYTVYVQMNSLKPEDTAVYYCARRGYSSSYRYPRYYYWGQGTQVTVSS	high polyreactivity
QVQLVESGGGLVQGGGSLRLSCAASGRTFYRYVMGWYRQAPGKERELVADISRRGGRTYYADSVKGRFTISRDNAKNTVYLQMNSLKPEDTAVYYCAAGQLGDYWGLGTQVTVSS	high polyreactivity
QVQLVESGGGLVQAGGSLRLSCAASGYTFYVYAMGWYRQAPGKERELVAAISSDTGRTYYADSVKGRFTISRDNAKNTVYLQMNSLKPEDTAVYYCAKRRVYGGYDYWGQGTQVTVSS	low polyreactivity
QVQLVESGGGLVQAGGSLRLSCAASGRTFTHYAMGWYRQAPGKERELVAVITTGGSTYYADSVKGRFTISRDNAKNTVYLQMNSLKPEDTAVYYCAATALSGLGYWGQGTQVTVSS	low polyreactivity
QVQLVESGGGLVQAGGSLRLSCAASGRTFVVNAMGWYRQAPGKERELVATIRWSGGRTYYADSVKGRFTISRDNAKNTVYLQMNSLKPEDTAVYYCAADFKGLFSSELDYWGQGTQVTVSS	low polyreactivity
QVQLVESGGGLVQAGGSLRLSCAASGSIFEQNVMGWYRQAPGKERELVAAITRGGSTNYADSVKGRFTISRDNAKNTVYLQMNSLKPEDTAVYYCAKRRWLGPSTLDYWGQGTQVTVSS	low polyreactivity
QDQLVQSGGGLVQAGGTLRLSCAASGRIIYVNAMGWYRQAPGKERDFVATITRGGSTYYADSVKGRFTISRDNAKNTVYFQMNSLQPEDTAVYYCATVRGGWKGRGHRNDYWGQGTQVTVSS	high polyreactivity
QVQLVESGGGLVQAGGSLRLSCAASGSISYANALGWYRQAPGKERELVAAISGSGGSTYYADSVKGRFTISRDNAKNTVYLQMNSLKPEDTAVYYCAARGFPPGDEWHPYDYWGQGTQVTVSS	low polyreactivity
QVQLVESGGGLVQAGGSLRLSCAASGFIFSRNAMGWYRQAPGKERELVARISRSGGRTYYADSVKGRFTISRDNAKNTVYLLMNSLKPEDTAVYYCATDHVRQSPYDYWGQGTQVTVSS	high polyreactivity
QVQLVQSGGGIVQEGGSLRLSCAASGSTFYRNTMGWYRQAPGKERELVAAISRTGASTHYADSVKGRFTISRDNAKNTVYFQMNSLKPEDTAVYYCNAVPAIGKYYGGGYWGQGTQVTVSS	high polyreactivity
QVQLVESGGGLVQAGGSLRLSCAASGLTFYRNAMGWYRQAPGKERELVAAITKSGARTYYAVSVKGRFTISRDNAKNTVYLQMNSLKPEDTAVYYCAADALNTYYYWGQGTQVTVSS	high polyreactivity

— the nanobody polyreactivity screen of Harvey et al. (2022)
